Where two headings read alike, the source gives them in different places. Ends that are not written are not given here. rhodamine = not defined here
T1: GST-SH3 domain (derived from BIN1) (human)
T1 sequence (O00499 whole entry, looked up): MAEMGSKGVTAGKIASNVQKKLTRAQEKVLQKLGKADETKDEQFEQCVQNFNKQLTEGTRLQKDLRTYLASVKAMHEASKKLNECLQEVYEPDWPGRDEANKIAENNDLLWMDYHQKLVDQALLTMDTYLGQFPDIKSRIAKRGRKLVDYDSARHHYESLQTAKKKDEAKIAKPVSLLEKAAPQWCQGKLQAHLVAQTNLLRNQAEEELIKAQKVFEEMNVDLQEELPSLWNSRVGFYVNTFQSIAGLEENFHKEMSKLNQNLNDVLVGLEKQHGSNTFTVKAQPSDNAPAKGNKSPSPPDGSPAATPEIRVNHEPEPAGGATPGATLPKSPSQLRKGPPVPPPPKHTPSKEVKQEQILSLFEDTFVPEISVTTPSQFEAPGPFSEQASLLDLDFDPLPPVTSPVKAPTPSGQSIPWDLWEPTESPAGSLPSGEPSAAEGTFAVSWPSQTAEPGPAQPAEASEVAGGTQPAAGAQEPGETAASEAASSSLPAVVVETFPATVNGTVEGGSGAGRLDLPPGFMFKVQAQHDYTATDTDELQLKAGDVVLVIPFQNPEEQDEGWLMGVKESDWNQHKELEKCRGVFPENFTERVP

T2: Alexa488 labeled BIN1-FL (human, UniProt O00499-8 1-454, Alexa 488 C5-maleimide on endogenous cysteine residues)
T2 sequence (looked up): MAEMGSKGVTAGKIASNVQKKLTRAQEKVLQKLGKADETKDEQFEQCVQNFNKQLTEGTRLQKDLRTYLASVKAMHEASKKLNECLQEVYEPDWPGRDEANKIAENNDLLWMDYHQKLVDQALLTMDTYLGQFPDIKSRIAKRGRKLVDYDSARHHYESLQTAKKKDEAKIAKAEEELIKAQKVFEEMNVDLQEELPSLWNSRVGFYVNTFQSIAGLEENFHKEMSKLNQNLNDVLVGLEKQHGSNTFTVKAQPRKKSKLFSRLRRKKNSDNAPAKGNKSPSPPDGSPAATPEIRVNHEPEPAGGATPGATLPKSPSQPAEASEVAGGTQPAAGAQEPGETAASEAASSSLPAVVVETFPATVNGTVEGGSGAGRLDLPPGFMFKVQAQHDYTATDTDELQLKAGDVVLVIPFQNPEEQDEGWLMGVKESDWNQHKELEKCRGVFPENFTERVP


Experiments:
[1] = molecular target: T1, GST-SH3 domain (derived from BIN1) (human); experiment: ITC
[2] = molecular target: T1, GST-SH3 domain (derived from BIN1) (human); experiment: ITC; remark: listed apart in the source
[3] = molecular target: T1, GST-SH3 domain (derived from BIN1) (human); experiment: ITC; remark: listed apart in the source
[4] = molecular target: T1, GST-SH3 domain (derived from BIN1) (human); experiment: ITC; remark: listed apart in the source
[5] = molecular target: T2, Alexa488 labeled BIN1-FL; experiment: recruitment of fluorescent peptide to protein-coated giant vesicles

Binder | Kd [1] [µM] | stoichiometry N [2] | Kd [3] [µM] | stoichiometry N [3] | Kd [4] [µM] | binding result [5]
RKKSKLFSRLRRKKN [exon10 peptide] | 11.3 | 1 | 3.9 | 1 |  | 
PPQIPSRPVRIPPGI [dynamin 2-derived proline-rich domain peptide] |  |  | 13.7 |  | 68.3 | 
rhodamine-PPQIPSRPVRIPPGI (reading uncertain) [rhodamine-labeled PRD peptide] |  |  |  |  |  | binds

Reference: article PMC4245986 (Biochemistry, 2014)
